B1: GST-tagged HDM2 (349-497) (domain or fragment, UniProt Q00987-11 349-497, looked up)
chain: EKAKLENSTQAEEGFDVPDCKKTIVNDSRESCVEENDDKITQASQSQESEDYSQPSTSSSIIYSSQEDVKEFEREETQDKEESVESSLPLNAIEPCVICQGRPKNGCIVHGKTGHLMACFTCAKKLKKRNKPCPVCRQPIQMIVLTYFP
notes: source: expressed and purified
B2: His-S-tagged PDCD11 (1033-1431) (domain or fragment, human, UniProt Q14690 1033-1431, looked up)
chain: LSIGDMVTGTVKSIKPTHVVVTLEDGIIGCIHASHILDDVPEGTSPTTKLKVGKTVTARVIGGRDMKTFKYLPISHPRFVRTIPELSVRPSELEDGHTALNTHSVSPMEKIKQYQAGQTVTCFLKKYNVVKKWLEVEIAPDIRGRIPLLLTSLSFKVLKHPDKKFRVGQALRATVVGPDSSKTLLCLSLTGPHKLEEGEVAMGRVVKVTPNEGLTVSFPFGKIGTVSIFHMSDSYSETPLEDFVPQKVVRCYILSTADNVLTLSLRSSRTNPETKSKVEDPEINSIQDIKEGQLLRGYVGSIQPHGVFFRLGPSVVGLARYSHVSQHSPSKKALYNKHLPEGKLLTARVLRLNHQKNLVELSFLPGDTGKPDVLSASLEGQLTKQEERKTEAEERDQKG
notes: as for B1

Columns and labels:
Assay in all cases: pull-down; GST pulldown in vitro; GST-tagged p53 or HDM2 (full length or truncations) as bait, His-S-tagged PDCD11 (full length or truncations) as prey
Details in all cases: both partners purified
[1] = biological target: T1, His-S-tagged full-length PDCD11 (programmed cell death 11) (human, UniProt Q14690 1-1871)
T1 construct: programmed cell death 11 (PDCD11), human, Gene ID 22984, 1871 amino acids, full length; also called PDCD11-FL; ALG-4; source: expressed and purified
T1 sequence (Q14690 whole entry): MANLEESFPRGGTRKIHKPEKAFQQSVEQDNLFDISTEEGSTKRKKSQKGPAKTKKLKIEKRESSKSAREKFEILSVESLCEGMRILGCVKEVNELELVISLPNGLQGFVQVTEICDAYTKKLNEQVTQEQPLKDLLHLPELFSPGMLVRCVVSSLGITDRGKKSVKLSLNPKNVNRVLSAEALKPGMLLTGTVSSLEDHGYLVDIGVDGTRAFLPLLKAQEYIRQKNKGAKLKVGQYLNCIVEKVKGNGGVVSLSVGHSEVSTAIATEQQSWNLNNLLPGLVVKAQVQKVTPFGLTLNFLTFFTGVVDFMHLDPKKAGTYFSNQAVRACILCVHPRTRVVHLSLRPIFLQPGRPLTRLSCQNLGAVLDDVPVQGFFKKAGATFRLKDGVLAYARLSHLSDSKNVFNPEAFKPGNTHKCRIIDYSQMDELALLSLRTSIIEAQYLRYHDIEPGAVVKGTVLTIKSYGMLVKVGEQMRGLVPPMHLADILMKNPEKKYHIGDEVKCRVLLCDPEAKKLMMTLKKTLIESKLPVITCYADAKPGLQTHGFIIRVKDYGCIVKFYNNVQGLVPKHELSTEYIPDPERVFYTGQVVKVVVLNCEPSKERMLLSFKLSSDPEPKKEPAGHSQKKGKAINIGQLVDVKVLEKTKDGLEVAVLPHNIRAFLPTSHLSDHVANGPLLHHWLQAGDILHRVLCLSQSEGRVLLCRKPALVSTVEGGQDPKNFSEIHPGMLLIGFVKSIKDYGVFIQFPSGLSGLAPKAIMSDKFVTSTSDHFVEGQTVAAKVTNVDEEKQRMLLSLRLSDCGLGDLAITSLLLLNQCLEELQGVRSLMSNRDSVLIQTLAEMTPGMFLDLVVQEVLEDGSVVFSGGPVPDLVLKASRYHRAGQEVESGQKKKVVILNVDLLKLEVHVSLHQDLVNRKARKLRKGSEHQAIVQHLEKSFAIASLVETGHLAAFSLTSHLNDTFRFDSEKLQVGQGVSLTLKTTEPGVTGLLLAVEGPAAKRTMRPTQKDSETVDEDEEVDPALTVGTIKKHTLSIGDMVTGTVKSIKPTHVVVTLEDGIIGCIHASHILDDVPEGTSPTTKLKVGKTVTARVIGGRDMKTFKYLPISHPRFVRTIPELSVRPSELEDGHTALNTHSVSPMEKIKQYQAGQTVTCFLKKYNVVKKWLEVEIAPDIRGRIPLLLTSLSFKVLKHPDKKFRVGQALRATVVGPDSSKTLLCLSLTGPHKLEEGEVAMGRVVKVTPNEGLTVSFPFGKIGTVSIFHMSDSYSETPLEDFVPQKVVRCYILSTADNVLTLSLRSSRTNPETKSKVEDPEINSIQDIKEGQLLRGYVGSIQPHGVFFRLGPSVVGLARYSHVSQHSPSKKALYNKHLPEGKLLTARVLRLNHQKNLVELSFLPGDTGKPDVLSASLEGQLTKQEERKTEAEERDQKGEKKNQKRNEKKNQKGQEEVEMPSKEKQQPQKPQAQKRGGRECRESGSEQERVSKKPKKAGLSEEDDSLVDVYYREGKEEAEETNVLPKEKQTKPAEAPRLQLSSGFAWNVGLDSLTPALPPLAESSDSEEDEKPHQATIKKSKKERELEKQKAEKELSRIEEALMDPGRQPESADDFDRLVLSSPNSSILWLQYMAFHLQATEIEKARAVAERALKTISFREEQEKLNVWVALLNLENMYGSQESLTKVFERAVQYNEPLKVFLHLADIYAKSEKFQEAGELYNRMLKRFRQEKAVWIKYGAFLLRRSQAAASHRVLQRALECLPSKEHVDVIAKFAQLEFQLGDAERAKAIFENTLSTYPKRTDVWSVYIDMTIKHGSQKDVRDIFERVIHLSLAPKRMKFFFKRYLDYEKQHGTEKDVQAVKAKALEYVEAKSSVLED

[2] = biological target: B2
[3] = biological target: T2, GST-tagged full-length HDM2 (UniProt Q00987-11 1-497)
T2 construct: HDM2, full length; also called HDM2-FL; GST-HDM2; source: expressed and purified

| binding result [2] | binding result [3] | Binder | binding result [1] |
| --- | --- | --- | --- |
| binds |  | B1 | binds |
|  | binds | B2 |  |

Reference: publication PMC10703783, “Programmed cell death 11 modulates but not entirely relies on p53-HDM2 loop to facilitate G2/M transition in colorectal cancer cells” (Oncogenesis, 2023)
